Article PMC6032885

Target: TbAlsin (T. brucei)
Assay: co-IP; equal volumes (10 uL each) of in vitro translated 35S-Met-labelled HA-tagged TbVps9 protein (bait) and TbRab (prey) mixed, 1 h at room temperature; anti-HA polyclonal antibody and protein A beads; 7 washes with 50 mM Tris pH 7.5, 150 mM NaCl, 10 mM EDTA, 0.1% Triton X-100, 10 mM MgCl2; SDS-PAGE and autoradiography

TbRab5A^SN (natural protein)
percent of TbAlsin bound: 50%
